Reference: paper PMC11796321, “Interleukin‐11 receptor is an alternative α‐receptor for interleukin‐6 and the chimeric cytokine IC7” (The Febs Journal, 2024)

T1: recombinant his-tagged soluble human IL-6R (human, UniProt P08887 20-365)
T1 construct: soluble human IL-6 α-receptor; In functional rows this id also stands for hIL-6R expressed on Ba/F3 cells (whole receptor); the readout says so; also called sIL-6R; shIL-6R; source: bought: R&D Systems (cat. no. 10537)
T1 sequence (looked up): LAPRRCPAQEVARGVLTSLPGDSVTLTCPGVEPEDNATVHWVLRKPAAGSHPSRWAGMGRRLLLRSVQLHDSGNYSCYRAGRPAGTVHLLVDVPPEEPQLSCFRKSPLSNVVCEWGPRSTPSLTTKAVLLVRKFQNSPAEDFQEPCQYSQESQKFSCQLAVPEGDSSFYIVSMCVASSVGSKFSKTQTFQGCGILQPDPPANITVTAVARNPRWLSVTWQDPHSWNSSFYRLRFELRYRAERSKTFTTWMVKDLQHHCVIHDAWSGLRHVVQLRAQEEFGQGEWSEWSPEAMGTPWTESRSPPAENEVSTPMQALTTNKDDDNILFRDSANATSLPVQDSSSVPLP

T2: recombinant his-tagged soluble human IL-11R (human, UniProt Q14626 24-370)
T2 construct: soluble human IL-11 α-receptor; In functional rows this id also stands for hIL-11R expressed on Ba/F3 cells (whole receptor); the readout says so; also called sIL-11R; shIL-11R; source: bought: R&D Systems (cat no. 8895-MR)
T2 sequence (looked up): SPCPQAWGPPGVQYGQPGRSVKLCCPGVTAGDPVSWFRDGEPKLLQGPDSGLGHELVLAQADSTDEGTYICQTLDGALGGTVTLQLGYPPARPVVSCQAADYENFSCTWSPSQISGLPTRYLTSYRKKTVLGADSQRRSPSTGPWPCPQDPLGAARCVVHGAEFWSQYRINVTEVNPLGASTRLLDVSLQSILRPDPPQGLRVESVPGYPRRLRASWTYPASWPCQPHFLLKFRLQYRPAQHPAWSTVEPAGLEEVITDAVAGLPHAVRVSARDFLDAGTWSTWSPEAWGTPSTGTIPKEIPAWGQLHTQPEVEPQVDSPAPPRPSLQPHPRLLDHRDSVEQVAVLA

B1: Hyper IL-11 (fusion protein of shIL-11R and hIL-11), Twin-Strep-tagged (other)
chain: SSPCPQAWGPPGVQYGQPGRSVKLCCPGVTAGDPVSWFRDGEPKLLQGPDSGLGHELVLAQADSTDEGTYICQTLDGALGGTVTLQLGYPPARPVVSCQAADYENFSCTWSPSQISGLPTRYLTSYRKKTVLGADSQRRSPSTGPWPCPQDPLGAARCVVHGAEFWSQYRINVTEVNPLGASTRLLDVSLQSILRPDPPQGLRVESVPGYPRRLRASWTYPASWPCQPHFLLKFRLQYRPAQHPAWSTVEPAGLEEVITDAVAGLPHAVRVSARDFLDAGTWSTWSPEAWGTPSTGGGSGGGSPGPPPGPPRVSPDPRAELDSTVLLTRSLLADTRQLAAQLRDKFPADGDHNLDSLPTLAMSAGALGALQLPGVLTRLRADLLSYLRHVQWLRRAGGSSLKTLEPELGTLQARLDRLLRRLQLLMSRLALPQPPPDPPAPPLAPPSSAWGGIRAAHAILGGLHLTLDWAVRGLLLLKTRL
B2: sgp130Fc (fusion protein of soluble hgp130 to the Fc-part of an IgG antibody) (Fc fusion, human, UniProt P40189 23-619, looked up)
chain: ELLDPCGYISPESPVVQLHSNFTAVCVLKEKCMDYFHVNANYIVWKTNHFTIPKEQYTIINRTASSVTFTDIASLNIQLTCNILTFGQLEQNVYGITIISGLPPEKPKNLSCIVNEGKKMRCEWDGGRETHLETNFTLKSEWATHKFADCKAKRDTPTSCTVDYSTVYFVNIEVWVEAENALGKVTSDHINFDPVYKVKPNPPHNLSVINSEELSSILKLTWTNPSIKSVIILKYNIQYRTKDASTWSQIPPEDTASTRSSFTVQDLKPFTEYVFRIRCMKEDGKGYWSDWSEEASGITYEDRPSKAPSFWYKIDPSHTQGYRTVQLVWKTLPPFEANGKILDYEVTLTRWKSHLQNYTVNATKLTVNLTNDRYLATLTVRNLVGKSDAAVLTIPACDFQATHPVMDLKAFPKDNMLWVEWTTPRESVKKYILEWCVLSDKAPCITDWQQEDGTVHRTYLRGNLAESKCYLITVTPVYADGPGSPESIKAYLKQAPPSKGPTVRTKKVGKNEAVLEWDQLPVDVQNGFIRNYTIFYRTIIGNETAVNVDSSHTEYTLSSLTSDTLYMVRMAAYTDEGGKDGPEFTFTTPKFAQGEIE
B3: Twin-strep-tagged human IL-11 (ligand, UniProt P20809 22-199, looked up)
chain: PGPPPGPPRVSPDPRAELDSTVLLTRSLLADTRQLAAQLRDKFPADGDHNLDSLPTLAMSAGALGALQLPGVLTRLRADLLSYLRHVQWLRRAGGSSLKTLEPELGTLQARLDRLLRRLQLLMSRLALPQPPPDPPAPPLAPPSSAWGGIRAAHAILGGLHLTLDWAVRGLLLLKTRL
notes: human interleukin 11 (IL-11); A His-tagged hIL-11 from E. coli (hIL-11his) was used only in some Western blots of signalling, not in SPR; also called hIL-11ts; hIL-11

Assays:
[1] = biological target: B2; assay: SPR; Biacore X100, Protein A sensor chip; sgp130Fc captured via its Fc (200-300 RU per cycle); hyper-cytokines injected 30 uL/min, 120 s, dissociation 300 s (200-0.20 nM cHIL-6, 25-0.05 nM HIL-6, 50-0.62 nM HIL-11); 1:1 binding model; details: both partners purified
[2] = biological target: B2; assay: cell-based or functional assay
[3] = biological target: B1; assay: cell-based or functional assay
[4] = biological target: Hyper IL-6 (fusion protein of human sIL-6R and human IL-6), Twin-Strep-tagged (human); assay: cell-based or functional assay
[5] = biological target: chimeric Hyper-cytokine IL-6/sIL-11R (cHIL-6), Twin-Strep-tagged (human, UniProt Q14626 23-317); assay: cell-based or functional assay
[6] = biological target: T1, recombinant his-tagged soluble human …; assay: SPR; Biacore X100, multi-cycle, NTA sensor chip; his-tagged soluble hIL-6R or hIL-11R immobilised (100-250 RU per cycle); cytokines injected 133.33 to 0.183 nM, 30 uL/min, 180 s, dissociation 800 s; 25 °C, PBS with 0.05% P20 and 50 uM EDTA; two-state reaction fit; design: ka1 (two-state fit, first step) / ka2 (two-state fit, second step): unit not given here; details: both partners purified
[7] = biological target: T2, recombinant his-tagged soluble human …; assay: as above; design: ka1 (two-state fit, first step) / ka2 (two-state fit, second step): unit not given here; details: both partners purified
[8] = biological target: T2, recombinant his-tagged soluble human …; assay: cell-based or functional assay

Question: How did the Kd [1] turn out when B1 was run?
Answer: 0.397 nM

Question: And the koff [1]?
Answer: 0.000142 s⁻¹

Question: What about the kon [1] of the same binder?
Answer: 360000 M⁻¹ s⁻¹

Question: What about the “EC50 of proliferation of Ba/F3-hgp130 cells (hgp130 on cells), 72 h” value [2] of the same binder?
Answer: 0.0578 nM

Question: How did the “IC50 of sgp130Fc on growth of Ba/F3-gp130 cells induced by 1.7 nM HIL-11 (blocks HIL-11 with gp130 on cells)” value [3] turn out when B2 was run?
Answer: 0.213 nM

Question: What about the “IC50 of sgp130Fc on growth of Ba/F3-gp130 cells induced by 1.7 nM HIL-6 (blocks HIL-6 with gp130 on cells)” value [4] of the same binder?
Answer: 0.428 nM

Question: And the “IC50 of sgp130Fc on growth of Ba/F3-gp130 cells induced by 1.7 nM cHIL-6 (blocks cHIL-6 with gp130 on cells)” value [5]?
Answer: 0.324 nM

Question: With B3 as the binder, how does the Kd [6] read?
Answer: 58.4 nM

Question: What about the “ka1 (two-state fit, first step)” value [6] of the same binder?
Answer: 164000

Question: And the “ka2 (two-state fit, second step)” value [6]?
Answer: 0.0112

Question: What about the “kd1 (two-state fit, first step)” value [6] of the same binder?
Answer: 0.0925 s⁻¹

Question: And the “kd2 (two-state fit, second step)” value [6]?
Answer: 0.00129 s⁻¹

Question: What about the Kd [7] of the same binder?
Answer: 0.53 nM

Question: What about the “ka1 (two-state fit, first step)” value [7] of the same binder?
Answer: 2.3e+06

Question: What about the “ka2 (two-state fit, second step)” value [7] of the same binder?
Answer: 0.00454

Question: What about the “kd1 (two-state fit, first step)” value [7] of the same binder?
Answer: 0.00692 s⁻¹

Question: What about the “kd2 (two-state fit, second step)” value [7] of the same binder?
Answer: 0.000972 s⁻¹

Question: What about the “EC50 of proliferation of Ba/F3-hgp130-hIL-11R cells (hIL-11R on cells), 72 h” value [8] of the same binder?
Answer: 0.0216 nM
